Results as given in paper PMC3324464, “The GPI Anchor Signal Sequence Dictates the Folding and Functionality of the Als5 Adhesin from Candida albicans” (PLoS ONE, 2012).
Entries after “also recorded” stand apart in the source; their conditions may differ.

T1: GST-Als5 (Candida albicans, UniProt Q5A8T7 20-1327)
T1 construct: source: E. coli BL21, purified (glutathione-agarose); not shown: GST, N-terminal, kept
T1 sequence: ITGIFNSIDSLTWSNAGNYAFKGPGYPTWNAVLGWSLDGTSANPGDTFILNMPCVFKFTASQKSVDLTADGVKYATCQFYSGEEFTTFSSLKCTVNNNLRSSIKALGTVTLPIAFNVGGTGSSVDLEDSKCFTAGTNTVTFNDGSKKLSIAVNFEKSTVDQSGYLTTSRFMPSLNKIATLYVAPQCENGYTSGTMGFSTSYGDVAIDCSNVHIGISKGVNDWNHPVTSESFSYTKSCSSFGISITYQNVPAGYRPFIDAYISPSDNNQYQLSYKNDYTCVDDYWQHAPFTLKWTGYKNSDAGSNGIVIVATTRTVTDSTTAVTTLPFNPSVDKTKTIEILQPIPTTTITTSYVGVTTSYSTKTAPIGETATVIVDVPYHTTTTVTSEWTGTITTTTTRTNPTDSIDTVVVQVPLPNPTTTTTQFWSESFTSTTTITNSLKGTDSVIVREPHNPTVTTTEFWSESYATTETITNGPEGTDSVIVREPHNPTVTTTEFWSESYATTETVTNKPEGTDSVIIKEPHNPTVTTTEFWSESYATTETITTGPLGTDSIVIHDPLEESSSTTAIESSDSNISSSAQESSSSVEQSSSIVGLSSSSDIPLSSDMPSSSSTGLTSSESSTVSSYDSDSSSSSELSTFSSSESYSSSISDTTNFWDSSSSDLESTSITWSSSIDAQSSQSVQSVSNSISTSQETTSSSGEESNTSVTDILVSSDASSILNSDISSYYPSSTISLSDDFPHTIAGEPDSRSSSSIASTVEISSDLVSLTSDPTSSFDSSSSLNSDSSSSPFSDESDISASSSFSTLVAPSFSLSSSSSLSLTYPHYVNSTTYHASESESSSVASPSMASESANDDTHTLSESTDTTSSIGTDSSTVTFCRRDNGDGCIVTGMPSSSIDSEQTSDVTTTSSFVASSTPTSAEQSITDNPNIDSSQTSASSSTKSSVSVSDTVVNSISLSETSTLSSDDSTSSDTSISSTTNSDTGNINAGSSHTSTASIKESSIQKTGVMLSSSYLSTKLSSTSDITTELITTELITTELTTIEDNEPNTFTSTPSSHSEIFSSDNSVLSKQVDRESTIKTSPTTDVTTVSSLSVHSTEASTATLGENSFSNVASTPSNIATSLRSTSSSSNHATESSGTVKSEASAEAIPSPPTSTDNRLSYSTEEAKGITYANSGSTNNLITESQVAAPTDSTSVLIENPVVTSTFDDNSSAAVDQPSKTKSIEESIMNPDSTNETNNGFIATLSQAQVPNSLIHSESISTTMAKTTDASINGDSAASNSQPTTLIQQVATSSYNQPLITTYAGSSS

B1: GST-Als5-SS: GST fusion of Als5 with the GPI-anchor attachment signal sequence, expressed in E. coli (protein)
chain: ITGIFNSIDSLTWSNAGNYAFKGPGYPTWNAVLGWSLDGTSANPGDTFILNMPCVFKFTASQKSVDLTADGVKYATCQFYSGEEFTTFSSLKCTVNNNLRSSIKALGTVTLPIAFNVGGTGSSVDLEDSKCFTAGTNTVTFNDGSKKLSIAVNFEKSTVDQSGYLTTSRFMPSLNKIATLYVAPQCENGYTSGTMGFSTSYGDVAIDCSNVHIGISKGVNDWNHPVTSESFSYTKSCSSFGISITYQNVPAGYRPFIDAYISPSDNNQYQLSYKNDYTCVDDYWQHAPFTLKWTGYKNSDAGSNGIVIVATTRTVTDSTTAVTTLPFNPSVDKTKTIEILQPIPTTTITTSYVGVTTSYSTKTAPIGETATVIVDVPYHTTTTVTSEWTGTITTTTTRTNPTDSIDTVVVQVPLPNPTTTTTQFWSESFTSTTTITNSLKGTDSVIVREPHNPTVTTTEFWSESYATTETITNGPEGTDSVIVREPHNPTVTTTEFWSESYATTETVTNKPEGTDSVIIKEPHNPTVTTTEFWSESYATTETITTGPLGTDSIVIHDPLEESSSTTAIESSDSNISSSAQESSSSVEQSSSIVGLSSSSDIPLSSDMPSSSSTGLTSSESSTVSSYDSDSSSSSELSTFSSSESYSSSISDTTNFWDSSSSDLESTSITWSSSIDAQSSQSVQSVSNSISTSQETTSSSGEESNTSVTDILVSSDASSILNSDISSYYPSSTISLSDDFPHTIAGEPDSRSSSSIASTVEISSDLVSLTSDPTSSFDSSSSLNSDSSSSPFSDESDISASSSFSTLVAPSFSLSSSSSLSLTYPHYVNSTTYHASESESSSVASPSMASESANDDTHTLSESTDTTSSIGTDSSTVTFCRRDNGDGCIVTGMPSSSIDSEQTSDVTTTSSFVASSTPTSAEQSITDNPNIDSSQTSASSSTKSSVSVSDTVVNSISLSETSTLSSDDSTSSDTSISSTTNSDTGNINAGSSHTSTASIKESSIQKTGVMLSSSYLSTKLSSTSDITTELITTELITTELTTIEDNEPNTFTSTPSSHSEIFSSDNSVLSKQVDRESTIKTSPTTDVTTVSSLSVHSTEASTATLGENSFSNVASTPSNIATSLRSTSSSSNHATESSGTVKSEASAEAIPSPPTSTDNRLSYSTEEAKGITYANSGSTNNLITESQVAAPTDSTSVLIENPVVTSTFDDNSSAAVDQPSKTKSIEESIMNPDSTNETNNGFIATLSQAQVPNSLIHSESISTTMAKTTDASINGDSAASNSQPTTLIQQVATSSYNQPLITTYAGSS
modifications: left off: GST, N-terminal, kept

What was measured:
GST-Als5-SS [1] = target: T2, GST-Als5-SS (Candida albicans, UniProt Q5A8T7 20-1326, N-terminal GST tag (pGEX-6P-2) not cleaved, omitted here; expressed in E. coli, unglycosylated. The 4044 bp insert implies the full ORF, including the N-terminal secretion signal, although the figure); assay: other fluorescence titration; van't Hoff plots of the association constants from the fluorescence titrations at different temperatures; ΔH° from the slope; conditions: both partners purified
GST-Als5 [2] = target: T1, GST-Als5; assay: as above; conditions: both partners purified
GST-Als5-SS [3] = target: T2, GST-Als5-SS; assay: other fluorescence titration; tryptophan fluorescence of 0.02 mg/ml protein, peptide titrated in; one-site saturation model; 52 °C (secondary structure of both proteins mildly perturbed at this temperature); conditions: both partners purified
GST-Als5 [4] = target: T1, GST-Als5; assay: as above; conditions: both partners purified
GST-Als5 [5] = target: T1, GST-Als5; assay: other fluorescence titration; tryptophan fluorescence of 0.02 mg/ml protein, peptide titrated in; one-site saturation model; 42 °C; conditions: both partners purified
GST-Als5 [6] = target: T1, GST-Als5; assay: other fluorescence titration; conditions: both partners purified
[7] = Aggregation by transmission electron microscopy; assay type: physicochemical; conditions: 37 °C, 2 weeks; 0.4 µM / 0.09 mg/ml (method)
Protocol: Transmission Electron Microscopy (TEM)
TEM studies were carried out on a JEOL 2100F. The proteins (0.09 mg/ml) were incubated at 37 °C for 2 weeks prior to the measurements. The proteins were spotted on a carbon-coated copper grid and positively stained with 2% uranyl acetate. The sample was then dried and examined by TEM using a 210 kV accelerating voltage.
Figure 5 Transmission electron microscope images showing aggregation by GST-Als5. […] The scale bar in each panel represents 100 nm. Left panel: 10,000X magnification. Right panel: 25,000X magnification.
(A) Prediction of β-aggregation potential for the GPI anchor attachment signal sequence (SS). The prediction of β-aggregation potential for the SS was done using TANGO (residues 1328–1347). Also shown is the propensity for α-helix, β-turn and β-sheet formation in the unfolded polypeptide chain as predicted by TANGO. […] (B). Transmission electron microscope images showing aggregation by SS and SS in the presence of GST-Als5. The samples, SS (40.0 µM), GST-Als5 (0.4 µM) and GST-Als5 (0.4 µM) + SS (40.0 µM) were incubated as 37 °C for two days before TEM images were recorded.

Molecule | dH (GST-Als5-SS [1]) [kcal/mol] | dH (GST-Als5 [2]) [kcal/mol] | Kd (GST-Als5-SS [3]) [nM] | Kd (GST-Als5 [4]) [nM] | Kd (GST-Als5 [5]) [nM] | Kd (GST-Als5 [6]) [nM] | aggregation (in words) [7]
AYKSLMT (source: synthetic peptide (USV Ltd.)) | 18.6 | -0.803 | 2 | 12 | 9 | 13 | 
KLRIPSV (source: synthetic peptide (USV Ltd.)) | 15.3 | 22.5 | 5 | 7 | 4 |  | 
EHAHTPR (source: synthetic peptide (USV Ltd.)) | 8.15 | 33.4 | 8 | 11 | 34 |  | 
B1 |  |  |  |  |  |  | showed very poor aggregation; also recorded: showed no propensity for aggregation
